Patent US7786083B2, “Metastin derivatives and use thereof” (Takeda Pharmaceutical Company Limited, priority 2006, dated 2010)
Values belong to the binder of their own block, whether it stands above or below them. [ ]: non-standard residue; d: D form. Arg(Me) = CNC(=N)NCCC[C@H](N)C(=O)O; Dap(CONH2) = NC(=O)NC[C@H](N)C(=O)O; Ala(cPr) = N[C@@H](CC1CC1)C(=O)O; Hyp = O=C(O)[C@@H]1C[C@@H](O)CN1; tBuAla = CC(C)(C)C[C@H](N)C(=O)O; Cha = N[C@@H](CC1CCCCC1)C(=O)O; Cba = N[C@@H](CC1CCC1)C(=O)O; Dap = NC[C@H](N)C(=O)O

Target: metastin receptor (OT7T175) stably expressed on CHO/dhfr- cells (human or rat, not given)
Test: cell-based or functional assay

Binder: Ac-[dY][Hyp][Dap(CONH2)]S[Cha]G[Ala(cPr)][Arg(Me)]W-NH2 [des(1)-Ac-[D-Tyr2,Hyp3,Alb4,Ser5,Cha6,Ala(cPr)8,Arg(Me)9,Trp10]MS10]
Specific Activity (EC50 of test compound based on EC50 of Metastin (45-54)); agonist activity, intracellular calcium ion level, FLIPR (ratio to Metastin (45-54)): 0.5

Binder: Ac-[dY][Hyp][Dap(CONH2)]T[Cha]G[Ala(cPr)][Arg(Me)]W-NH2 [des(1)-Ac-[D-Tyr2,Hyp3,Alb4,Thr5,Cha6,Ala(cPr)8,Arg(Me)9,Trp10]MS10]
Specific Activity (EC50 of test compound based on EC50 of Metastin (45-54)); agonist activity, intracellular calcium ion level, FLIPR (ratio to Metastin (45-54)): 0.5

Binder: Ac-[dY][Hyp][Dap(CONH2)]T[Cha]GL[Arg(Me)]W-NH2 (also: Gly6-Leu7 -CONH- replaced by -CH2CH2-) [des(1)-Ac-[D-Tyr2,Hyp3,Alb4,Thr5,Cha6,Gly7Ψ(CH2CH2)Leu8,Arg(Me)9,Trp10]MS10]
Specific Activity (EC50 of test compound based on EC50 of Metastin (45-54)); agonist activity, intracellular calcium ion level, FLIPR (ratio to Metastin (45-54)): 1.1

Binder: Ac-[dY][Hyp][Dap(CONH2)][Dap][Cha]G[Ala(cPr)][Arg(Me)]W-NH2 [des(1)-Ac-[D-Tyr2,Hyp3,Alb4,Dap5,Cha6,Ala(cPr)8,Arg(Me)9,Trp10]MS10]
Specific Activity (EC50 of test compound based on EC50 of Metastin (45-54)); agonist activity, intracellular calcium ion level, FLIPR (ratio to Metastin (45-54)): 0.7

Second part, the binder after the results:

Specific Activity (EC50 of test compound based on EC50 of Metastin (45-54)); agonist activity, intracellular calcium ion level, FLIPR (ratio to Metastin (45-54)): 0.5
B1: des(1)-Ac-[D-Tyr2,Hyp3,Thr5,Cha6,Ala(cBu)8,Arg(Me)9,Trp10]MS10 (peptide)
peptide: Ac-[dY][Hyp]NT[Cha]G[Cba][Arg(Me)]W-NH2
SMILES: CNC(=N)NCCC[C@H](NC(=O)[C@H](CC1CCC1)NC(=O)CNC(=O)[C@H](CC1CCCCC1)NC(=O)[C@@H](NC(=O)[C@H](CC(N)=O)NC(=O)[C@@H]1C[C@@H](O)CN1C(=O)[C@@H](Cc1ccc(O)cc1)NC(C)=O)[C@@H](C)O)C(=O)N[C@@H](Cc1c[nH]c2ccccc12)C(N)=O

Specific Activity (EC50 of test compound based on EC50 of Metastin (45-54)); agonist activity, intracellular calcium ion level, FLIPR (ratio to Metastin (45-54)): 0.5
B2: des(1)-Ac-[D-Tyr2,Hyp3,Thr5,Cha6,Ala(cPr)8,Trp10]MS10 (peptide)
peptide: Ac-[dY][Hyp]NT[Cha]G[Ala(cPr)]RW-NH2
SMILES: CC(=O)N[C@H](Cc1ccc(O)cc1)C(=O)N1C[C@H](O)C[C@H]1C(=O)N[C@@H](CC(N)=O)C(=O)N[C@H](C(=O)N[C@@H](CC1CCCCC1)C(=O)NCC(=O)N[C@@H](CC1CC1)C(=O)N[C@@H](CCCNC(=N)N)C(=O)N[C@@H](Cc1c[nH]c2ccccc12)C(N)=O)[C@@H](C)O

Specific Activity (EC50 of test compound based on EC50 of Metastin (45-54)); agonist activity, intracellular calcium ion level, FLIPR (ratio to Metastin (45-54)): 1.3
Binder: Ac-[dY][Hyp][Dap(CONH2)]T[Cha]GLRW-NH2 (also: Gly6-Leu7 -CONH- replaced by -CH2CH2-) [des(1)-Ac-[D-Tyr2,Hyp3,Alb4,Thr5,Cha6,Gly7Ψ(CH2CH2)Leu8,Trp10]MS10]

Specific Activity (EC50 of test compound based on EC50 of Metastin (45-54)); agonist activity, intracellular calcium ion level, FLIPR (ratio to Metastin (45-54)): 3.5
B3: des(1)-Ac-[D-Tyr2,Hyp3,Thr5,Cha6,8,Arg(Me)9,Trp10]MS10 (peptide)
peptide: Ac-[dY][Hyp]NT[Cha]G[Cha][Arg(Me)]W-NH2
SMILES: CNC(=N)NCCC[C@H](NC(=O)[C@H](CC1CCCCC1)NC(=O)CNC(=O)[C@H](CC1CCCCC1)NC(=O)[C@@H](NC(=O)[C@H](CC(N)=O)NC(=O)[C@@H]1C[C@@H](O)CN1C(=O)[C@@H](Cc1ccc(O)cc1)NC(C)=O)[C@@H](C)O)C(=O)N[C@@H](Cc1c[nH]c2ccccc12)C(N)=O

Specific Activity (EC50 of test compound based on EC50 of Metastin (45-54)); agonist activity, intracellular calcium ion level, FLIPR (ratio to Metastin (45-54)): 1.4
B4: des(1)-Ac-[D-Tyr2,Hyp3,Thr5,Cha6,Leu(Me)8,Arg(Me)9,Trp10]MS10 (peptide)
peptide: Ac-[dY][Hyp]NT[Cha]G[tBuAla][Arg(Me)]W-NH2
SMILES: CNC(=N)NCCC[C@H](NC(=O)[C@H](CC(C)(C)C)NC(=O)CNC(=O)[C@H](CC1CCCCC1)NC(=O)[C@@H](NC(=O)[C@H](CC(N)=O)NC(=O)[C@@H]1C[C@@H](O)CN1C(=O)[C@@H](Cc1ccc(O)cc1)NC(C)=O)[C@@H](C)O)C(=O)N[C@@H](Cc1c[nH]c2ccccc12)C(N)=O

Specific Activity (EC50 of test compound based on EC50 of Metastin (45-54)); agonist activity, intracellular calcium ion level, FLIPR (ratio to Metastin (45-54)): 0.7
Binder: Ac-[dY][Hyp]NTFGL[Arg(Me)]W-NH2 (also: Phe5-Gly6 amide bond replaced by -CH2S-) [des(1)-Ac-[D-Tyr2,Hyp3,Thr5,Phe6Ψ(CH2S)Gly7,Arg(Me)9,Trp10]MS10]
